Changes are numbered by the printed parent chain.
B1: Met-TNFRI171 (receptor)
chain: MDSVCPQGKYIHPQNNSICCTKCHKGTYLYNDCPGPGQDTDCRECESGSFTASENHLRHCLSCSKCRKEMGQVEISSCTVDRDTVCGCRKNQYRHYWSENLFQCFNCSLCLNGTVHLSCQEKQNTVCTCHAGFFLRENECVSCSNCKKSLECTKLCLPQIENVKGTEDSGTT
notes: also called Wild-type (TNFRI171); wild-type TNFRI
B2: TNFRI105-S31 (receptor)
chain: MDSVCPQGKYIHPQNNSICCTKCHKGTYVYNDCPGPGQDTDCRECESGSFTAIENFLPACLSCSKCRKEMGQVEISSCTVDRDTVCGCRKNQYRHYWSENLFQCFN
notes: Met-TNFRI105 superlead mutant made in E. coli
B3: TNFRI105-S47 (receptor)
chain: B2 chain with I53M, A59G
notes: as for B2
B4: TNFRI105-S36 (receptor)
chain: B2 chain with I53M
notes: as for B2
B5: TNFRI105-S41 (receptor)
chain: B2 chain with I53H
notes: as for B2
B6: Met-TNFRI105 (receptor)
chain: B2 chain with V29L, I53S, F56H, P58R, A59H
notes: also called Wild-type (TNFRI105)
B7: TNFRI105-S46 (receptor)
chain: B2 chain with A59G
notes: as for B2
B8: TNFRI171-A21 (receptor)
chain: B1 chain with S53I, H56F, R58P, H59G
B9: TNFRI171-A18 (receptor)
chain: B1 chain with S53H, H56F, R58P, H59A

Each binder was assayed against T1, TNF-α (UniProt P01375 77-233, limits assumed) (assay: competition ELISA: sample vs plate-bound TNFRI190 for TNF-α, from IC50, relative to wild-type TNFRI171).
T1 construct: also called tumor necrosis factor; ligand
Experimental: (§1) Each well was washed three times with 300 μL of washing buffer (0.05% Tween-20, PBS, pH 7.4) and incubated at room temperature for 2 hours with 300 μL of a blocking buffer (5% skim milk, PBS, pH 7.4). Then, each well was washed as mentioned above. A sample of interest was diluted to concentrations of 500 nM, 125 nM, 31 nM, 7.8 nM, 1.9 nM, 0.48 nM, 0.12 nM, and 0.03 nM in series and loaded in an amount of 100 μL into each well in duplicate. To each well was added 100 μL of 50 ng/ml TNF-α, followed by incubation at room temperature for 2 hours. After the wells were washed with a washing buffer, 100 μg/mL anti-TNF-α antibody solution was diluted 1/1000, added in an amount of 100 μL per each well, and incubated at room temperature for 2 hours. After the plates were washed with a washing buffer, a substrate was added in an amount of 100 μL to each well and reacted at room temperature for 15 min. In each well, 100 μL of the substrate 3,3′,5,5′-tetramethylbenzidine (RnD, Cat. No: DY999) was reacted at room temperature for 15 min, followed by adding 50 μL of 1.0 M sulfuric acid (Samchun Chemical, Cat. No: 52129) to each well to stop the reaction.
(§2) The affinity of the Met-TNFRI for TNF-α was assayed using the same procedure as in [Experimental Example 1]
B1 was tested, and the “Relative Affinity for Ligand (%)” value was 100%.

What follows are binders tested against T1, TNF-α (assay: competition ELISA: sample vs plate-bound TNFRI190 for TNF-α, from IC50, relative to wild-type TNFRI105).
Experimental: as §1, §2
In the case of B2, the “Relative Affinity for Ligand (%)” value is reported as 453%.
For B3, the “Relative Affinity for Ligand (%)” value was 497%.
With B4 the “Relative Affinity for Ligand (%)” value was 459%.
B5 was tested, and the “Relative Affinity for Ligand (%)” value was 403%.
B6 was tested, and the “Relative Affinity for Ligand (%)” value was 100%.
B7 was tested, and the “Relative Affinity for Ligand (%)” value was 547%.

The binders below were run against T1, TNF-α (assay: cell-based or functional assay).
For B1, the “Relative Activity (Cytotoxicity-neutralizing activity) (fold)” value (from here on “Relative Activity … (fold)”) was 1 fold.
In the case of B8, the “Relative Activity … (fold)” value is reported as 226 fold.
With B9 the “Relative Activity … (fold)” value was 126 fold.
